# Test results: the DeepSol protein solubility set
# Assay: soluble on expression in E. coli; label from the status in PepcDB or PDB records
row,Sequence,soluble on expression in E. coli
1,HHHHHHSSGLVPRGSGMKETAAAKFERQHMDSPDLGTDDDDKASSSANECISVKGRIYSILKQIGSGGSSKVFQVLNEKKQIYAIKYVNLEEADNQTLDSYRNEIAYLNKLQQHSDKIIRLYDYEITDQYIYMVMECGNIDLNSWLKKKKSIDPWERKSYWKNMLEAVHTIHQHGIVHSDLKPANFLIVDGMLKLIDFGIANQMQPDTTSVVKDSQVGAVNYMPPEAIKDMSSSRENGKSKSKISPKSDVWSLGCILYYMTYGKTPFQQIINQISKLHAIIDPNHEIEFPDIPEKDLQDVLKCCLKRDPKQRISIPELLAHPYVQIQTHPVNQMAKGTTEEMKYVLGQLVGLNSPNSILKAAKTLYEHYSGGESHNSSSSKTFEKKRGKK,soluble
2,DYNASDMKVVSLRTKDNLHLKSWYKPASKHRPTILYLHGNAGHIGYRMPLVREFIDAGLGVFLLEYRGYGGNPGKPGEKGLYEDGETAIEFLIQHGVPSKRVILYGESIGTGVATHLATKYPVCAVILQSPFTSLTRLAQYHYPLNFLKPWDQYNSLARMKKINAPILVLHGKLDQIVPYQEGLNVFNEANEPKKMVSFDDKEHNDLWSADNFSREIIQFALNQCS,not soluble
3,RDLAVAILMDCSRSTEASVGERTVIDTAREALAALAAGIDVAGDRQAIWGFSSLRRDRVFLHLCKRFDEPMGPAVTARIGGLRPGHYTRLGAAIRHASARLNEEAASRKLLLVLTDGKPNDLDHYEGVHGIEDSRMAVREARALSQAVHGVVIDADGQDWFARIFGRAGFTLLPEPARLARALPDLYRSLTQEI,not soluble
4,IQQHSTDIETPTGTMRTYVYRPQASGKFPTIIFYSEIFQQTAPIARTAALMAGHGFVVLVPEVFHELNPIGTVLGYDDAGKDKGNQDKWAKPLEHHDSDTQALVNFIQQQDYCSGKIGTMGVCIGGHLAYRAALNKSVLAAACLYATDIHSGDLPSAEGNDSLTRTKDISAELMMIWGKQDPHIPDEGRMMIHKNLIASGNLFSWHEFNASHAFMRDEGERYDPQLALRVYGMSVELFNRTL,not soluble
5,MGCLGNSKTEDQRNEEKAQREANKKIEKQLQKDKQVYRATHRLLLLGAGESGKSTIVKQMRILHVNGFNGEGGEEDPQAARSNSDGEKATKVQDIKNNLKEAIETIVAAMSNLVPPVELANPENQFRVDYILSVMNVPDFDFPPEFYEHAKALWEDEGVRACYERSNEYQLIDCAQYFLDKIDVIKQDDYVPSDQDLLRCRVLTSGIFETKFQVDKVNFHMFDVGGQRDERRKWIQCFNDVTAIIFVVASSSYNMVIREDNQTNRLQEALNLFKSIWNNRWLRTISVILFLNKQDLLAEKVLAGKSKIEDYFPEFARYTTPEDATPEPGEDPRVTRAKYFIRDEFLRISTASGDGRHYCYPHFTCAVDTENIRRVFNDCRDIIQRMHLRQYELLGGHHHHHH,soluble
6,MGSDKIHHHHHHVTHKDMEYALDRVLAGSEKRSRSLVEEEREVVAYHEAGHALVGWMLEHTDALLKYEISIFRQKFRFPLKPLKSRRKVHFLREFLCNFPQRILENFKKIQKSYSKIQIFHQKFTQNIKKLKFPVLGEFLKFPANNSSEFLKNLKNFIKKIFFFEIFGPKLPQKVTIIPRTSAALGFAQYSPRDKHLFSKDELFDRMCMMLGGRCAENLKFGRATSGAQDDLQKVTKSAYAQVKLYGMSSIVGPLSFPNTEGFQIKPYSKKFASTFDQEATLIVAKANEATTDLIKNNMDKLETIAQALLKREVLNYEDVKKL,not soluble
7,MGSDKIHHHHHHMSLFNIFDVSGSGMAAQSIRLNTTASNIANADSVSSSVDKTYRARHPIFEAELNKAHDQQNGTKGVQVRAIVESDKPLLKEYSPSHPMADGDGFIYKPNVNVMEEMADMISASRSYQMNVQVADATKTMLQQTLRMGK,not soluble
8,MSHPSHVRALCASLCLGAGLPVHAGHVHAGQGFLEDAKASLTARNFHLHRNFVGDASQGKAEEWTQSFILDARSGFTQGSVGFGLDVLGLYSLKLDGGKGTAGTQLLPIHDDGRPADDFGRLAVAGKLRVSNSELKIGEWMPVLPILRSDDGRSLPQTFRGGQLSANEIAGLTLYAGQFRGNSPRNDASMQDMSLFGRPAATSDRFDFAGGEYRFNGERSLLGLWNAELKDIYRQQYLQLQHSQPLGDWLLGANLGGFRGRDAGSARAGKLDNRTVSALFSARYGLHTLYLGLQKVSGDDGWMRVNGTSGGTLANDSYNASYDNPGERSWQLRYDFDFVGLGLPGLTFMTRYLHGDHVRLAGVTDDGSEWGRESELGYTLQSGAFKRLNVRWRNSSQRRDWGSNTRFDENRLIVSYPLSLL,not soluble
9,FSNNNFVYTDGTHFALNGKSLYINGFNAYWLMYIAYDPSTRIKVTNTFQQASKYKMNVARTWAFSHGGSRPLQSAPGVYNEQMFQGLDFVISEAKKYGIHLIMSLVNNWDAFGGKKQYVEWAVQRGQKLTSDDDFFTNPMVKGFYKNNVKVVLTRVNTITKVAYKDDPTILSWELINEPRCPSDLSGKTFQNWVLEMAGYLKSIDSNHLLEIGLEGFYGNDMRQYNPNSYIFGTNFISNNQVQGIDFTTIHMYPNQWLPGLTQEAQDKWASQWIQVHIDDSKMLKKPLLIAEFGKSTKTPGYTVAKRDNYFEKIYGTIFNCAKSGGPCGGGLFWQVLGQGMSSFDDGYQVVLQESPSTSRVILLQSLRLSKLS,soluble
10,MPRKPKRPCSFPGCPELTDGRYCDMHQRQMDAYYNKYERDPQTRKRYDRRWKRIRDRYISEHPLCEECQKYGRLTPAEEVHHIIPLSKGGTNADSNLMSLCKQCHSSITAREGERWARR,not soluble
11,QREIQGVRHFVADLSEAARLGLVPGEHYFCVSSIRVDRQHDGAPLCWTDVYAQRDYTAVIELAREHPDQLIAGLIEQHYGRAIAVVDQQVRAVLLTAEMARALKAEAGSPGLKIIRHYREENGDLMAVSETVHPDDRFT,not soluble
12,MEDYIKNWNKIISNCSFDNTYKMAWAKAIVETAISKDIDSALIISFEEIAELFLKYYWNQTIYFNLTQGSSLKKIPEALKYTKNLIDLYYAKKGDYFPQRYEKIIFEDFGIESEKNKTIKKIVKTLGQDVSWRFMNLSGETYPLYELVENQVVLSLENAKLLKKYSDFLFPMINYRWTQMLESFNHSPRISSKVRAIDEDSIKKRNNLNKFREFLDLEFSDNKRYCFYCGKEIVDDDLTIDHVIPWSFMYSDDIWNLVYCHRSENSSKSNRIPEETDVKALECRNKLLLEKLTENKISSKRVDELQLAIEKDYVKKFWISSRGLEHHHHHH,not soluble
13,MSLSYVHTEIQNDALYITLDYPEKKNGLDAELGTSLLEAIRAGNNETSIHSIILQSKHRAYFSSGPRLEDLLICASDQSDVRLREVLHVLNHCVLEIFTSPKVTVALINGYAYGGGFNMMLACDRRIALRRAKFLENFHKMGISPDLGASYFLPRIIGYEQTMNLLLEGKLFTSEEALRLGLIQEICENKQELQERVKNYLKAVSEGYVPAIAATKKLLKGKAAEELKQQLEQETEELVALFKQTEIKKRLEALVEGHHHHHH,soluble
14,MNKHSGIDFKQLNFLTKLNENHSGELWKGRWQGNDIVVKVLKVRDWSTRKSRDFNEECPRLRIFSHPNVLPVLGACQSPPAPHPTLITHWMPYGSLYNVLHEGTNFVVDQSQAVKFALDMARGMAFLHTLEPLIPRHALNSRSVMIDEDMTARISMADVKFSFQSPGRMYAPAWVAPEALQKKPEDTNRRSADMWSFAVLLWELVTREVPFADLSNMEIGMKVALEGLRPTIPPGISPHVSKLMKICMNEDPAKRPKFDMIVPILEKMQDK,soluble
15,MGSDKIHHHHHHMSFDRPEIYSAPVLQGESPNDDDNTEIIKSFKNFILEFRLDSQFIYRDQLRNNILVKNYSLTVNMEHLIGYNEDIYKKLSDEPSDIIPLFETAITQVAKRISILSRAQSANNNDKDPENTSMDTDSLLLNSLPTFQLILNSNANQIPLRDLDSEHVSKIVRLSGIIISTSVLSSRATYLSIMCRNCRHTTSITINNFNSITGNTVSLPRSCLSTIESESSMANESNIGDESTKKNCGPDPYIIIHESSKFIDQQFLKLQEIPELVPVGEMPRNLTMTCDRYLTNKVIPGTRVTIVGIYSIYNSKNGAGSGRSGGGNGGSGVAIRTPYIKILGIQSDVETSSIWNSVTMFTEEEEEEFLQLSRNPKLYEILTNSIAPSIFGNEDIKKAIVCLLMGGSKKILPDGMRLRGDINVLLLGDPGTAKSQLLKFVEKVSPIAVYTSGKGSSAAGLTASVQRDPMTREFYLEGGAMVLADGGVVCIDEFDKMRDEDRVAIHEAMEQQTISIAKAGITTVLNSRTSVLAAANPIYGRYDDLKSPGDNIDFQTTILSRFDMIFIVKDDHNEERDISIANHVINIHTGNANAMQNQQEENGSEISIEKMKRYITYCRLKCAPRLSPQAAEKLSSNFVTIRKQLLINELESTERSSIPITIRQLEAIIRITESLAKLELSPIAQERHVDEAIRLFQASTMDAASQDPIGGLNQASGTSLSEIRRFEQELKRRLPIGWSTSYQTLRREFVDTHRFSQLALDKALYALEKHETIQLRHQGQNIYRSGV,not soluble
16,MTIQHQFAENLSRLKKEHGLKNHQIAELLNVQTRTVAYYMSGETKPDIEKLIRLATYFHLSIDELVGYVQEDKVWNDLSLKQWLLSLNLRSEEEIAKIKILVDTVETLYPN,not soluble
17,MQIVSVDIGSTWTKAALFTREGDALTLVNHVLTPTTTHHLAKGFFSSLNQVLNVDNALPLLNSGEVALKYSSSAKGGLAVAAMGLVPSITLETAKVTAHSAGAKIAQYYAYKLNRRDIQALEETQPDILLFTGGTDGGEESYGLNNARVLAESKLDCAIIYAGNRDIQDEVQEILGHKDLTIVDNVLPDLDHPNPVAARQAICDIFLKRIVKGKGLDVIVDKTGEEPMPTPWTVFELVKAISNVDHSWKEFMLIDMGGATTDVYSACANTLSPDTVLHGVPEPFVKRTVEGDLGMRVSAVVVGESAKELVNVNFAQQPAQLDAFYHYLRHLVAHPDYLPANAEEKYFDTVLAGLCVGYATERHAGTKKEVCTCVGNVDLQMGRDLTTVRKVVGSGGWLSRASQFDMHHWLKYRELNDDGKRILLPTEFEYYRDSRGLLPLLANVARVDPLAAARTSIQCLTL,not soluble
18,MEKTYKLPIVLGTDPENTIRIDKLPPLKGAFAVHIHESETENNAHIKLEYGDTEYCLSLYVFNYPKFLRNETVRVRNYDLWPKWIMFAARLPNGKLHPKSGGKVYREDAVIVGEGNYELENPFISFKYSDGRILNFRIEFYRYLRYKSPKYGPSFRSEYWFIGVD,not soluble
19,RYHEFLGHFMNQFTSFGVAGAHGKTSTTGLLSHSMKNITDTSYLIGDGTGRGSANAQYFVFEADEYERHFMPYHPAYSIITNIDFDHPDYFTSIDDVFSAFDDYAKQVQKGLFVYGEDSNLRKITSNAPIYYYGFEENDDFMATDIIRTTTGSNFKVKHDGQIIGEFHVPAYGRHNILNATAVIANLYVAGFDMALVAEHLKTFSGV,not soluble
20,MNLNQLTGADLMAARTHIGLSISAVAKLTGINRNTLSQFEQEKASLSGSEKKRLAGCYEERGYHFDEPQTTDETVLATRYDDARERLVDAAYDVNMNGLGEAVLALADASHDLLSMLARPMDVAQEEVELDAVELPESYLEMHNVLQRHFLADKAGQMQGKVGFFKEDADERSAKLIAYMAQQYLTLLHAEMPEVVSLERDSLDDDSDNARVLDALANWTFYDALKEMTV,not soluble
